Assay: Pharmacokinetics (PK) of hGH variant-HSA conjugate, blood level by sandwich ELISA
Type: in vivo
Settings: 7-week-old male ICR mice, 65 nmol/kg intravenous tail injection, blood 0.5-24 h
Description: For pharmacokinetic evaluation of the hGH variant-HSA conjugate, 7-week-old male ICR mice (n=6) were used. 65 nmol/kg each of hGH variant-HSA (L52) and hGH variant-HSA (Q141) was intravenously injected into the tail, blood collection was performed at 0.5, 4, 8, 12, and 24 hours after injection, and centrifugation was performed at 2,500 rpm for 10 minutes, followed by storing at −20° C. As a comparative group, Norditropin (somatropin, Novo Nordisk) was administered at the same concentration, and then compared with the above sample.
The hGH variant-HSA conjugate in blood was analyzed by sandwich ELISA (human growth hormone (GH) DouSet ELISA, R&D Systems). An anti-hGH capture antibody was added to coat an immunoplate at 4° C. overnight, and a reaction was blocked with 1% BSA in PBS at 37° C. for 1 hour. The blood sample collected and was diluted on the washed plate and left for 2 hours, and then treated with an anti-hGH detection antibody at room temperature for 2 hours. After treating the detection antibody with streptavidin-HRP at room temperature for 1 hour, 100 μL of a substrate was treated for 5 minutes and then 2N H2SO4 was treated to stop the reaction. Afterward, a microplate reader (Hidexsense, Finland) was used to measure an optical density at 450 nm. […]

Question: Which half-life does the source give for “Norditropin: comparative group, Norditropin (somatropin, Novo Nordisk)” here?
Answer: 30 min
